Data published in patent publication US20220119496A1, “INHIBITORS OF CYSTEINE PEPTIDASES ISOLATED FROM NATURAL RAW MATERIALS AND USE OF THE INHIBITORS IN MEDICINE AND VETERINARY MEDICINE” (priority 2019, published 2022).
Values joined by “and” are separate entries in the source; they are usually repeats but may differ in a detail not shown here. Identical values can stand only once.

Key:
[1] = test system: cysteine gingipain in gingival pocket fluids; experiment: Inhibition of cysteine gingipain activity in gingival pocket fluids of patients with periodontitis (BApNA substrate); format: biochemical, human; details: not exceeded even with excess inhibitor
Protocol: In gingival pocket fluids, cysteine gingipain activity was determined as the amount of p-nitroaniline released from BApNA (Benzoyl-DL Arginyl-para-nitroanilide) substrates, or Z-Arg-Arg-pNA (Benzol-DLArg-Arg-β-p-nitroanilide).
The amount of cysteine peptidases that was used as enzymatic activity was that led to the degradation of the substrates used and release of micromoles of p-nitroaniline from them within 1 minute at 37° C.
Inhibition was performed in 10 fluid samples from gingival pockets taken from patients diagnosed with periodontitis.
Determination of gingipain activity in fluids taken from gingival pockets: Fluid from the gingival pockets is taken with small strips of cellulose paper, which are placed in a tube containing 1 ml of PBS. The solution is sonicated for 30 sec on ice, then centrifuged at 10,000 g for 10 min.
To 1 ml of 20 mM pH 6.0 phosphate buffer containing 2 mM EDTA and 1 mM DTT is added 100 μl gingipain solution, then 20-100 μL inhibitor solution is added, and 20 μL BApNA substrate solution (Benzoyl DL Arginyl para-nitroanilide) 40/mg/ml DMSO. […] Absorbance is measured at 405 nm on a spectrophotometer relative to the control (without inhibitors and papain). Gingipain activity is measured by the amount of para-nitroaniline released.

[2] = test system: cysteine gingipain in gingival pocket fluids; experiment: In vitro inhibition of cysteine gingipain activity in human gingival pocket fluids by egg white cystatin (BANA substrate); format: biochemical; details: Table 6
Protocol: (§1) A solution containing known cystatin from egg white with a concentration of 0.02% and activity of 12 U/mg and 20% glycerin was used to rub the gums of dogs (once a day) and added 0.2 ml to a bowl with 200 ml drinking water (1 mU)/ml cystatin) for 4-6 weeks. Liquids from gingival pockets were removed using plaque paper, which was placed in 1 ml saline and frozen at −80° C., before removing plaque calculus. Then, after the aforementioned cystatin therapy from egg white, fluids from the gingival pockets were taken again in an analogous manner and frozen. After obtaining the desired amount of samples, they were thawed, sonicated, centrifuged to then determine the activity of cysteine gingipain in 100 μL samples using a BANA substrate (Benzoyl-arginyl-beta-naphthylamide). Test samples with a volume of 100 μl were preincubated at 37° C. in 0.01 M phosphate buffer pH 6.0 with the addition of 1 μM DL-cysteine and 2 μM EDTA for 10 minutes, then a solution of N-benzoyl DL-arginyl hydrochloride-β-naphthylamide (BANA) so that its final concentration in the test sample was 1.5 mM, and then incubated under these conditions for 30 minutes. After this time, the reaction was stopped by determining the colorimetrically released β-naphthylamine.
As one unit of enzymatic activity of cysteine proteinases is the amount of enzyme which releases 1.0 nmole of β-naphthylamine from the substrate within one hour under the described incubation conditions, whereas as an inhibitor unit—the amount that inhibits 1 enzyme unit.
Patients with periodontitis were taken from the gingival pockets before removing the plaque using tissue strips, which were placed in 1 ml of saline and then frozen at −80° C. […] The solution was sonicated, centrifuged and 100 μl of supernatant was taken for determinations. Various amounts of cystatin were added to the test solution, and then the protease activity was determined by the BANA test as in Example 1.

[3] = test system: cysteine gingipain in gingival pocket fluids; experiment: In vivo inhibition of cysteine gingipain activity in dogs (gums rubbed and drinking water with cystatin)
Protocol: as §1
Standard tests for which the final result was determined were prepared in parallel with the tested samples, which were solutions containing all components as in the actual tests, except that after adding the BANA substrate the reactions were immediately stopped and the colorimetrically determined free β-naphthylamine was determined. As one unit of enzymatic activity of cysteine proteinases is the amount of enzyme which releases 1.0 nmole of β-naphthylamine from the substrate within one hour under the described incubation conditions, whereas as an inhibitor unit—the amount that inhibits 1 enzyme unit.

[4] = test system: cysteine gingipain in dogs gingival pockets; experiment: In vitro inhibition of cysteine proteases in gingival pocket fluid of dogs (BANA); format: biochemical; parameters: key to Cysteine gingipain activity after adding cystatin: enzyme units; 1 U releases 1.0 nmol β-naphthylamine per hour; details: 40 ng cystatin
Protocol: as §1
Standard tests for which the final result was determined were prepared in parallel with the tested samples, which were solutions containing all components as in the actual tests, except that after adding the BANA substrate the reactions were immediately stopped and the colorimetrically determined free β-naphthylamine was determined. […]
Before periodontal removal, dogs with periodontal disease collected fluid from the gingival pockets using tissue strips that were placed in 1 mL of saline. […] Various amounts of cystatin were added to the test solution, and then the protease activity was determined using the BANA substrate as in Example 1.

[5] = test system: cysteine gingipain in gingival pocket fluids; experiment: Dog case study, cystatin in drinking water and gum rubbing; format: in vivo; details: one dog
Protocol: A female mixed breed, weighing about 5 kg and 7 years old, became dejected and avoided food, staggered and turned over, and purulent discharge leaked from her nose. […] In dormancy, the stone was removed along with four molars on the left. During sleep, gingival pocket fluids were removed from 3 gingival pockets on the right using strips of paper and placed in tubes containing 1 ml of saline. After grinding the paper with ultrasound and centrifugation, the activity of cysteine gingipain was determined in solutions. Their activity ranged from 1.35 to 0.89 units based on 1.0 ml of liquid based on the amount of β-naphthylamine released. For 4 weeks, the dog was given water to drink with the addition of cystatin from egg protein at a concentration of about 10-6% and rubbed the gums with a pad impregnated with 0.001% cystatin from egg white 3-4 times a day. […] After 6 years of surgery, there were no changes in the periodontium. After some time, the dog got used to rubbing his gums, which probably saved him from changes in the periodontium.

chicken embryo = experiment: Toxicity in chicken embryo studies; format: in vivo
[6] = Storage stability of inhibitory activity; format: physicochemical; details: about 4° C.
From the text: The protein fractions are combined and the whole is subjected to separation on a membrane permeable compounds of a certain size. Because at this stage the interest is focused on the isolation of peptides and not cystatins, the combined protein fractions were not stabilized with glycerol or other glycols. The main reason for not using a stabilizer is the high probability of blocking the filters used in the separation stage. The combined protein fractions (eluate from the affinity chromatography column) are filtered as quickly as possible using membrane permeable to 3 kDa molecules, and then the low molecular filtrate is desalted on membrane permeable to 700 Da. […] The resulting low molecular weight oligopeptides are able to inhibit cysteine peptidase enzymes such as autogenic cathepsins or bacterial enzymes. The low molecular weight cysteine peptidase inhibitors of the invention thus obtained are stored either in a refrigerator (+4° C.) or in a freezer.
Inhibitory activity of cystatin and several-amino acid inhibitors of cysteine peptidases were determined in relation to cysteine gingipain in gingival pocket fluids and cysteine cathepsins in cancerous tissues and veins of people with atherosclerosis or native cathepsin B.

[7] = test system: cysteine gingipain in gingival pocket fluids; details: as disclosed in PL 428931; cited from earlier work
[8] = test system: cysteine gingipain in dogs gingival pockets; details: as disclosed in PL 428931; cited from earlier work
Porphyromonas gingivalis = details: concentration of 50 WI; cited from earlier work
[9] = individual samples 1-11, after 4-6 weeks cystatin treatment vs before plaque removal, listed as cystatin solution from egg white

B1: cystatin from egg white: known cystatin from egg white, activity 12 U/mg, stabilized with glycerol; natural cysteine peptidase inhibitor (protein, UniProt P01038 24-139, looked up)
Cystatin: SEDRSRLLGAPVPVDENDEGLQRALQFAMAEYNRASNDKYSSRVVRVISAKRQLVSGIKYILQVEIGRTTCPKSSGDLQSCEFHDEPEMAKYTTCTFVVYSIPWLNQIKLLESKCQ
inhibition of proteolytic activity in gingival pocket fluids compared to total activity [1]: 85% | E/F*100 inhibited activity, Average ([2]; average of 23 samples): 15.89 ± 6.28% | CP activity after adding cystatin ([2]; individual samples 1-23): 0.47 U/ml (3×) and 0.61 U/ml and 1.16 U/ml and 0.98 U/ml (2×) and 1.12 U/ml (2×) and 0.75 U/ml and 0.34 U/ml and 0.87 U/ml and 1.22 U/ml and 1.11 U/ml and 2.19 U/ml and 2.52 U/ml and 1.97 U/ml and 3.96 U/ml and 2.18 U/ml and 3.11 U/ml and 1.28 U/ml and 2.74 U/ml and 1.73 U/ml | E/F*100 inhibited activity ([2]; individual samples 1-23): 18.29% and 28.11% and 10.59% and 10.08% and 26.86% and 18.94% and 9.63% and 5.67% and 11.03% and 14.79% and 10.68% and 14.30% and 8.99% and 14.76% and 11.46% and 21.57% and 24.84% and 24.00% and 22.20% and 24.47% and 13.87% and 20.10% and 16.83% | % inhibited activity, Average ([3]; average of 11 samples): Approximately 67% | % remaining activity, Average ([3]; average of 11 samples): 32.97 ± 21.49% | % inhibited activity, Average ([3]; average of 11 samples, listed as cystatin solution from egg white): 67.05 ± 21.52% | % inhibited activity [3, 9]: 94.79% and 77.31% and 79.23% and 58.9% and 64.33% and 93.50% and 24.24% and 81.26% and 67.68% and 54.78% and 41.55% | % remaining activity [3, 9]: 5.51% and 22.69% and 20.77% and 41.10% and 35.67% and 6.50% and 75.76% and 18.73% and 32.32% and 45.22% and 58.45% | % inhibited activity, Average ([4]; average of 19 dogs): 87.28 ± 8.92% | % remaining activity, Average ([4]; average of 19 dogs): 12.72 ± 8.92% | Cysteine gingipain activity after adding cystatin ([4]; dogs gingival pocket fluid, individual samples 1-19, 12 units/mg protein): 0.06 (2×) and 0.04 (3×) and 0.03 (3×) and 0.08 and 0.02 (2×) and 0.07 (2×) and 0.09 and 0.15 and 0.24 and 0.13 (2×) and 0.23 | change of gingipain activity in gingival pocket fluids ([5]; 4 weeks cystatin in water and gum rubbing 3-4 times a day, sampled after 3 months): reduced almost five-fold | tartar build-up and gum redness ([5]; after 3 months): no tartar build-up or redness in the gums | toxicity relative to 0.02% chlorhexidine (chicken embryo): about 105 times lower | inhibitory activity after storage for several months in the refrigerator [6]: dimerizes and loses its biological activity | blocked proteolytic activity in the gingival pocket fluid, humans [7]: about 85% | blocked total proteolytic activity, dogs [8]: about 90% | elimination of bacteria from an infected area (Porphyromonas gingivalis): up to 50%
